{
  "source": "patent US20110262445A1",
  "about": "(CEPHALON AUSTRALIA, published 2011)",
  "binders": {"B1": {"name": "Antibody 128 (antibody, human IgG1, kappa)", "heavy chain": "not shown", "light chain": "DIQMTQSPSSVSATVGDRVTITCRASQSISINLHWYQQKPGKAPKLLIYFASQSISGVPSRFSGSGSGTDFSLTINSLQPEDFATYYCQQSNSFPLTFGGGTKVEIKRTVAAPSVFIFPPSDEQLKSGTASVVCLLNNFYPREAKVQWKVDNALQSGNSQESVTEQDSKDSTYSLSSTLTLSKADYEKHKVYACEVTHQGLSSPVTKSFNRGEC"}, "B2": {"name": "Antibody 130 (antibody, human IgG1, kappa)", "heavy": "not shown", "light": "B1 light chain with T14S, V15P"}, "B3": {"name": "Antibody 131 (antibody, human IgG1, kappa, V domains shown)", "VH": "EVQLVQSGAEVKKPGATVKISCKASGYTFSDYYLHWVRQAPEKGLEWMGWIDPENGDTEYAPKFQGRVTITADTSTDTGYLELSSLRSEDTAVYYCAANKELRYFDVWGQGTLVTVSS", "VL": "DIQMTQSPSSVSASVGDRVTITCRASQSISINLHWYQQKSGKAPKLLIYFASQSISGVPSRFSGSGSGTDFSLTINSLQPEDFATYYCQQSNSFPLTFGGGTKVEIKR"}, "B4": {"name": "Antibody 132 (antibody, human IgG1, kappa, V domains shown)", "VH": "B3 VH", "VL": "B3 VL with S40P, G41H"}, "B5": {"name": "Antibody 133 (antibody, human IgG1, kappa, V domains shown)", "VH": "B3 VH", "VL": "B3 VL with S40P, K42E"}, "B6": {"name": "Antibody 134 (antibody, human IgG1, kappa, V domains shown)", "VH": "B3 VH", "VL": "B3 VL with S40P, A43S"}, "B7": {"name": "Antibody 135 (antibody, human IgG1, kappa, V domains shown)", "VH": "B3 VH", "VL": "B3 VL with S40P, V58I"}, "B8": {"name": "Antibody 137 (antibody, human IgG1, kappa, V domains shown)", "VH": "B3 VH", "VL": "B3 VL with S40P, Y87F"}, "B9": {"name": "Antibody 140 (antibody, human IgG1, kappa)", "heavy": "not shown", "light": "B1 light chain with T85R"}, "B10": {"name": "Antibody 141 (antibody, human IgG1, kappa)", "heavy chain": "not shown", "light chain": "B1 light chain with T14S, V15P, T85R"}, "B11": {"name": "Antibody 142 (antibody, human IgG1, kappa, V domains shown)", "VH": "B3 VH", "VL": "B3 VL with T85R"}, "B12": {"name": "Antibody 143 (antibody, human IgG1, kappa, V domains shown)", "VH": "B3 VH", "VL": "B3 VL with S40P, G41H, T85R"}, "B13": {"name": "Antibody 144 (antibody, human IgG1, kappa, V domains shown)", "VH": "B3 VH", "VL": "B3 VL with S40P, K42E, T85R"}, "B14": {"name": "Antibody 145 (antibody, human IgG1, kappa, V domains shown)", "VH": "B3 VH", "VL": "B3 VL with S40P, A43S, T85R"}, "B15": {"name": "Antibody 146 (antibody, human IgG1, kappa, V domains shown)", "VH": "B3 VH", "VL": "B3 VL with S40P, V58I, T85R"}, "B16": {"name": "Antibody 147 (antibody, human IgG1, kappa, V domains shown)", "VH": "B3 VH", "VL": "B3 VL with S40P, P80T, T85R"}, "B17": {"name": "Antibody 148 (antibody, human IgG1, kappa, V domains shown)", "VH": "B3 VH", "VL": "B3 VL with S40P, T85R, Y87F"}, "B18": {"name": "scFv CE-B1 (scFv)", "scFv": "QVQLVQSGAEVKKPGASVKVSCKASGYTLTDYYLHWVRQAPGQGLEWMGWIDPENGDTEYAPKFQGRVTMTTDTSTSTAYMELRSLRSDDTAVYYCNANKELRYFDVWGQGTMVTVSSGGGGSGGGGSGGGGSEIVMTQSPATLSVSPGERATLSCRASQSISINLHWYQQKPGQAPRLLIYFASQSISGIPARFSGSGSGTEFTLTISSLQSEDFAVYYCQQSNSFPLTFGGGTKVEIKR", "notes": "scFv-80 variant: VH F29L; not shown: proprietary C-terminal FLAG tag"}, "B19": {"name": "scFv CR-B1 (scFv)", "scFv": "B18 scFv with L29F, D89E", "notes": "scFv-80 variant: VH D85E; not shown: proprietary C-terminal FLAG tag"}},
  "note": "Where a chain is given by its changes, count along the chain named. Names and notes keep the numbering of the source.",
  "data": [
    {"target": "T1, human IL-23 (human, UniProt P29460 23-328; Q9NPF7 20-189)", "T1 construct": "Recombinant (Ebioscience); HIS-tagged in flow cytometry, biotinylated in some assays; also called hIL-23; rhIL-23", "T1 sequence 1": "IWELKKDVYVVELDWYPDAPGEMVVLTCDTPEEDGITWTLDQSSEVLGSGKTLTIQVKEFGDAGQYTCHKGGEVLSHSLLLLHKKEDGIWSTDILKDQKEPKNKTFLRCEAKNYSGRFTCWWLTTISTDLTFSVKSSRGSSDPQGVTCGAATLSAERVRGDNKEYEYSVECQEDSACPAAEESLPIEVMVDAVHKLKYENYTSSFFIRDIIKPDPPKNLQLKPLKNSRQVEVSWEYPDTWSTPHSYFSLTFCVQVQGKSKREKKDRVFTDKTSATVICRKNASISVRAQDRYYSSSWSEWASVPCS", "T1 sequence 2": "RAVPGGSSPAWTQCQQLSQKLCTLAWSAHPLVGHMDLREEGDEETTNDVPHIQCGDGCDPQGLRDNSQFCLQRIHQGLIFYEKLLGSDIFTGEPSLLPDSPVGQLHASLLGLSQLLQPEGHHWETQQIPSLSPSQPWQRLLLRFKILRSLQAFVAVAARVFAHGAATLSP", "assay": "ELISA, coated IL-23", "outline": "(§1)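 Binding values are absorbance readings. After cytokine (1 μg/mL, carbonate buffer pH 9.6) was coated onto Maxisorp plates overnight at 4° C and the plates were blocked with 1% BSA in PBS, antibody titrations were bound for 1 hour at 25° C and detected with HRP-linked goat anti-human IgG or anti-murine immunoglobulin (1:2000). Color from TMB, stopped with 1M HCl, was read at 450 nm with 620 nm as reference.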", "values": [
      {"binder": "B1", "binding result": "binds"},
      {"binder": "B2", "binding result": "binds"},
      {"binder": "B3", "binding result": "binds"},
      {"binder": "B4", "binding result": "binds"},
      {"binder": "B5", "binding result": "binds"},
      {"binder": "B6", "binding result": "binds"},
      {"binder": "B7", "binding result": "binds"},
      {"binder": "B8", "binding result": "binds"},
      {"binder": "B9", "binding result": "binds"},
      {"binder": "B10", "binding result": "binds"},
      {"binder": "B11", "binding result": "binds"},
      {"binder": "B12", "binding result": "binds"},
      {"binder": "B13", "binding result": "binds"},
      {"binder": "B14", "binding result": "binds"},
      {"binder": "B15", "binding result": "binds"},
      {"binder": "B16", "binding result": "binds"},
      {"binder": "B17", "binding result": "binds"}
    ]},
    {"target": "T2, human IL-12 (human, UniProt P29460 23-328; P29459 23-219)", "T2 construct": "Recombinant (Peprotech); FLAG-tagged IL-12 in the flow cytometry assays, biotinylated in the IL-12Rβ2 assay; also called hIL-12", "T2 sequence 1": "T1 sequence 1", "T2 sequence 2": "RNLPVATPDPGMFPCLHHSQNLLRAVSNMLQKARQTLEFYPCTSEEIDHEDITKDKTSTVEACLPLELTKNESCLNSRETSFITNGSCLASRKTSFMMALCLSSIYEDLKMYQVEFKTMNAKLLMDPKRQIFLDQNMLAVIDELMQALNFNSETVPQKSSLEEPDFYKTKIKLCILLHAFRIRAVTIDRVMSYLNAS", "assay": "SPR, purified scFv captured via FLAG", "method": "(§2) A number of the scFv variants presented in TABLE 4 were selected for full characterization of binding kinetics, encompassing a broad range of mutation profiles and binding affinities. Large-scale protein expressions were carried out for each scFv. The expressed scFvs were purified as monomeric proteins and tested for binding against IL-12 and IL-23 by SPR (TABLE 5).\n(§3) Purified scFvs were subjected to full kinetic characterization using a BIAcore T100 biosensor (GE Healthcare). Approximately 10,000 RU of the proprietry FLAG-specific capture molecule was immobilized on a CM5 Series S Sensor chip, using standard amine coupling chemistry in flow cells (FC) 1 and FC2 (or alternatively FC3 and FC4) of the BIAcore T100 Biosensor. The running buffer used was HBS-EP+ (BIAcore) and interactions measured at 30° C. or 35° C. to promote differentiation of scFvs with very similiar kd values. Peak purified FLAG-tagged scFvs (prepared as described in the previous paragraph) were diluted to 10 nM in running buffer, and captured on FC2 at a flow rate of 10 μl/min in order to capture 50 RU of scFv (typically 60 sec was sufficient to capture this level of tagged scFv). After an appropriate stabilization period, the target, IL-12 or IL-23, were passed over FC1 and FC2 at a flow rate of 60 μl/min at concentrations ranging from 81 nM to 0.13 nM (using a five-fold dilution of IL-12) and 81 nM to 1 nM (using a three-fold dilution of IL-23). The contact time for association was 180 sec and dissociation measured for 10 mins for the highest concentration and 300 sec for all other concentrations in the series. The sensorgram data from FC2 was subtracted from FC1 and a buffer only control. The curves were fitted using a 1:1 Langmuir equation to generate the kₐ, kd and KD values.", "units": {"Kd": "nM", "koff": "s⁻¹", "kon": "M⁻¹ s⁻¹"}, "values": [
      {"binder": "B18", "Kd": 0.089, "koff": 0.00018, "kon": "2e+06"},
      {"binder": "B19", "Kd": 0.23, "koff": 0.00044, "kon": "1.9e+06"}
    ]},
    {"target": "T1, human IL-23", "assay": "SPR, purified scFv captured via FLAG", "method": "as §2, §3", "units": {"Kd": "nM", "koff": "s⁻¹", "kon": "M⁻¹ s⁻¹"}, "values": [
      {"binder": "B18", "Kd": 0.098, "koff": "3e-05", "kon": 310000},
      {"binder": "B19", "Kd": 0.13, "koff": "4.1e-05", "kon": 320000}
    ]},
    {"target": "T1, human IL-23", "assay": "SPR screen, crude scFv captured via FLAG", "method": "Approximately 6500 individual scFvs recovered from the ribosome display reactions were expressed and screened for binding against IL-23 using a high-throughout SPR assay. The variants were ranked according to the kd and the best variants were sequenced at the nucleic acid level.\nHigh-throughput SPR screening was conducted using a BIAcore A100 biosensor (GE Healthcare). Approximately 10 000 RU of the proprietary FLAG-specific capture molecule was immobilized on a CM5 Series S Sensor chip, using standard amine coupling chemistry on Spots 1 & 5 (outer spots) and 3,000RU to Spots 2 & 4 (inner spots) in each of the four flow cells of the BIAcore A100 Biosensor. The running buffer used was HBS-EP+ (BIAcore) and all interactions measured at 25° C. Crude periplasmic preparations of FLAG-tagged scFvs (prepared as described in the previous paragraph), were diluted two-fold in running buffer before capturing at a flow rate of 5u1/min for 60 sec. Approx. 100RU (on outer spots) and 50RU (on inner spots) of tagged scFv was captured. Following a 2 min stabilization period, IL-23 was passed over all spots of all four flow cells simultaneously at a flow rate of 30u1/min for 120 sec and dissociation monitored for 200 sec. Generated sensorgrams were referenced against the unmodified spot 3 of each flow cell, and fitted using a 1:1 Langmuir equation with R1 set to local to account for varying ligand densities to generate the kₐ, kd and KD values.", "units": {"koff": "s⁻¹"}, "values": [
      {"binder": "B18", "koff": 0.00028},
      {"binder": "B19", "koff": 0.00026}
    ]},
    {"target": "T2, human IL-12", "assay": "ELISA, coated IL-12", "outline": "as §1", "values": [
      {"binder": "B1", "binding result": "binds"},
      {"binder": "B2", "binding result": "binds"},
      {"binder": "B3", "binding result": "binds"},
      {"binder": "B4", "binding result": "binds"},
      {"binder": "B5", "binding result": "binds"},
      {"binder": "B6", "binding result": "binds"},
      {"binder": "B7", "binding result": "binds"},
      {"binder": "B8", "binding result": "binds"},
      {"binder": "B9", "binding result": "binds"},
      {"binder": "B10", "binding result": "binds"},
      {"binder": "B11", "binding result": "binds"},
      {"binder": "B12", "binding result": "binds"},
      {"binder": "B13", "binding result": "binds"},
      {"binder": "B14", "binding result": "binds"},
      {"binder": "B15", "binding result": "binds"},
      {"binder": "B16", "binding result": "binds"},
      {"binder": "B17", "binding result": "binds"}
    ]}
  ]
}
